Assays:
human plasma kallikrein [1] = target: T1, human plasma kallikrein (human, UniProt P03952 20-638); experiment: ratio of Ki,app values, reference aprotinin
T1 construct: The active enzyme comes from the zymogen prekallikrein

human plasmin = human plasmin (human, UniProt P00747 97-810, limits assumed); experiment: protease inhibition, Ki,app
[2] = target: porcine pancreatic kallikrein (porcine, UniProt P00752 8-246); experiment: protease inhibition, Ki,app
human plasma kallikrein [3] = target: T1, human plasma kallikrein; experiment: protease inhibition, Ki,app
human plasma factor XIa = human plasma factor XIa (human, UniProt P03951 19-625); experiment: protease inhibition, Ki,app

T1 sequence (P03952 20-638 limits assumed): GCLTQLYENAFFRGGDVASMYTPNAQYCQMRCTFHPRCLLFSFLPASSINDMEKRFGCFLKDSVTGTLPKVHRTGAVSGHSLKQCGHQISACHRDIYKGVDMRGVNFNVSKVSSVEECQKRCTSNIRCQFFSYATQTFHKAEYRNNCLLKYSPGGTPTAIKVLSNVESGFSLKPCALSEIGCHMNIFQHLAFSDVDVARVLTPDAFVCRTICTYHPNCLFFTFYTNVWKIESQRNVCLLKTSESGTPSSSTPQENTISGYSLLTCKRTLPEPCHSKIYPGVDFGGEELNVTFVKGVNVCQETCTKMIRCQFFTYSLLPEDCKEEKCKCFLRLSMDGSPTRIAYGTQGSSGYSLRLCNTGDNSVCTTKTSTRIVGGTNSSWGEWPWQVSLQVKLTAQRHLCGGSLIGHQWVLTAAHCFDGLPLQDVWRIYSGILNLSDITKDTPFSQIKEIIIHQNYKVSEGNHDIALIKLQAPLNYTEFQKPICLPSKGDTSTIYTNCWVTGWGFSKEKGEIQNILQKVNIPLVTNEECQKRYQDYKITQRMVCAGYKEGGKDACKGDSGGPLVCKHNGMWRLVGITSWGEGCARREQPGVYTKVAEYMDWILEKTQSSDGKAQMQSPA
Chain of human plasmin (P00747 97-810 limits assumed): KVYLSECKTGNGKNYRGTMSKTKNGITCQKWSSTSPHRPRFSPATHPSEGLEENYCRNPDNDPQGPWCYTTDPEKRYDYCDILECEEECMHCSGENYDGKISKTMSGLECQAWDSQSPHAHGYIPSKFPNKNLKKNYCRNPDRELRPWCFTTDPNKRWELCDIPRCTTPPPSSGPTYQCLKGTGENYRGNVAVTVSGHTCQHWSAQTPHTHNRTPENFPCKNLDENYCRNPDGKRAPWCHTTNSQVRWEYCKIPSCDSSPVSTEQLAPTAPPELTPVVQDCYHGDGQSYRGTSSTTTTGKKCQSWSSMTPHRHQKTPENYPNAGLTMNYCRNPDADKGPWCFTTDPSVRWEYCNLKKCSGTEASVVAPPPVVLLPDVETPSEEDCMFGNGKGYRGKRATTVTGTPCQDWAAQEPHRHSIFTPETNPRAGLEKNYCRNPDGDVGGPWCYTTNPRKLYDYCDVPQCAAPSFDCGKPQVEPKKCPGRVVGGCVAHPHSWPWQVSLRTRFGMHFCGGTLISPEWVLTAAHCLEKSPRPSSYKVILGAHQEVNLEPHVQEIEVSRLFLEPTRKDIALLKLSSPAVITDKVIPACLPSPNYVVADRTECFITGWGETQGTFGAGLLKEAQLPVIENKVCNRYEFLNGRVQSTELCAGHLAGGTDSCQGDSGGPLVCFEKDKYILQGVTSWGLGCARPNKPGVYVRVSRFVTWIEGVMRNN
Chain of porcine pancreatic kallikrein (P00752 8-246): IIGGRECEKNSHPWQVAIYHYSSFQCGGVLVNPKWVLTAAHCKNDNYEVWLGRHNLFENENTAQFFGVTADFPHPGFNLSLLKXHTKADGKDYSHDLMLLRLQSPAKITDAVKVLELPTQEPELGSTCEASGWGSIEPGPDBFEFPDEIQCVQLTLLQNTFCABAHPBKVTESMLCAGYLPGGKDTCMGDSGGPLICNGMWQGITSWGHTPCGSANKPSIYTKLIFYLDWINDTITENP

B1: PEP-1 KI polypeptide (designed binder)
chain: EAMHSFCAFKADDGPCRAAHPRWFFNIFTRQCEEFIYGGCEGNQNRFESLEECKKMCTRD
notes: Non-naturally occurring Kunitz domain polypeptide from a phage display library; Molecular weight 7,054 Daltons
For B1, the “fold higher affinity (Ki,app) than aprotinin” value (human plasma kallikrein [1]) was 1000 fold, the Ki (human plasmin) was 140 nM and the Ki [2] was 27000 nM. It also gave a Ki (human plasma kallikrein [3]) of 0.044 nM and a Ki (human plasma factor XIa) of 10 nM.

— patent US8124586 (DYAX, dated 2012)
